PMC13096800

Target: apoptosis-inducing factor, mitochondrial (AIFM1) (human) (UniProt O95831)
Experiment: cross-linking; sulfo-SDA (0.5 mM) photo-cross-linking of AIFM1 at 1 mg/ml, pre-incubated on ice with 1 mM NADH for 1 h to induce dimerization; 10 mM HEPES-NaOH pH 7.8, 150 mM NaCl, 4 mM MgCl2, 0.5 mM TCEP; UVEN UV activation 0-180 s; SDS-PAGE, and LC-MS/MS of the 32-s sample

Q: How did the stoichiometry N turn out when “apoptosis-inducing factor, mitochondrial (AIFM1) (from UniProt O95831 103-613) (natural protein)” was run?
A: The stoichiometry N was 2.
